The values below come from patent US20260132197A1 (NANJING LEGEND BIOTECH, published 2026).

Where a chain is given by its changes, count along the chain named. Names may count otherwise.

To fix the notation:
B1: 108VH5.M25 / 108VL1.M5 (antibody, human IgG4 S228P, kappa, V domains shown)
VH: EVQLVQSGAEVKKPGASVKVSCKASGYTFTHHWMHWVRQAPGQGLEWMGMIDASDRETRYAQKFQGRVTMTRDTSTSTVYMELSSLRSEDTAVYYCARLGRYYFDYWGQGTLVTVSS
VL: EIVLTQSPATLSLSPGERATLSCRASQSVSSYLAWYQQKPGQAPRLLIYGASNRATGIPARFSGSGSGTDFTLTISSLEPEDFAVYYCGESYGHLYTFGGGTKVEIKR
notes: Full-length IgG4 (S228P), kappa; also called VH5.M25 VL1.M5
B2: 108VH5.M24 / 108VL1.M5 (antibody, human IgG4 S228P, kappa, V domains shown)
VH: B1 VH with R56L
VL: B1 VL
notes: Full-length IgG4 (S228P), kappa; also called VH5.M24 VL1.M5
B3: 108VH5.M5 / 108VL1.M5 (antibody, human IgG4 S228P, kappa, V domains shown)
VH: B1 VH with M34I, R56S, Y60L, A61S, Q65K, G66D
VL: B1 VL
notes: Full-length IgG4 (S228P), kappa; also called VH5.M5 VL1.M5
B4: 108VH5.M9 / 108VL1.M5 (antibody, human IgG4 S228P, kappa, V domains shown)
VH: B1 VH with T28S, M34I, R56S, Y60L, A61S
VL: B1 VL
notes: Full-length IgG4 (S228P), kappa; also called VH5.M9 VL1.M5
B5: 108VH5.M8 / 108VL1.M5 (antibody, human IgG4 S228P, kappa, V domains shown)
VH: B1 VH with T28S, M34I, R56S, Q65K, G66D
VL: B1 VL
notes: Full-length IgG4 (S228P), kappa; also called VH5.M8 VL1.M5
B6: 108VH5.M26 / 108VL1.M5 (antibody, human IgG4 S228P, kappa, V domains shown)
VH: B1 VH with R56V
VL: B1 VL
notes: Full-length IgG4 (S228P), kappa; also called VH5.M26 VL1.M5
B7: 108VH5.M20 / 108VL1.M5 (antibody, human IgG4 S228P, kappa, V domains shown)
VH: B1 VH with R56A
VL: B1 VL
notes: Full-length IgG4 (S228P), kappa; also called VH5.M20 VL1.M5
B8: 108VH10.Me / 108VL10.M1 (antibody, V domains shown)
VH: EVQLVESGGGLVQPGGSLRLSCAASGYSFTHHWIHWVRQAPGKGLEWVAMIDQSDSETRLSQKFKDRFTISADTSKNTAYLQMNSLRAEDTAVYYCSRLGRYYFDYWGQGTLVTVSS
VL: DIQMTQSPSSLSASVGDRVTITCRASENVGTYISWYQQKPGKAPKLLIYGASNRYTGVPSRFSGSRSGTDFTLTISSLQPEDFATYYCGESYGHLYTFGQGTKVEIK
notes: 4D5-framework series; constant regions not restated for this series; Pro53 replaced with Gln; also called VH10.Me VL10.M1
B9: 108VH10.Mb / 108VL10.M1 (antibody, V domains shown)
VH: B8 VH with I34M, Q53P
VL: B8 VL
notes: 4D5-framework series; constant regions not restated for this series; also called VH10.Mb VL10.M1
B10: 108VH10.Ma / 108VL10.M1 (antibody, V domains shown)
VH: B8 VH with Y27F, S28T, T30S, Q53P
VL: B8 VL
notes: 4D5-framework series; constant regions not restated for this series; also called VH10.Ma VL10.M1
B11: 108VH10 / 108VL10.Ma (antibody, V domains shown)
VH: B8 VH with Q53P
VL: B8 VL with E27Q, N28S, V29I, G30S, T31S, I33L, S34N
notes: 4D5-framework series; constant regions not restated for this series; also called VH10 VL10.Ma
B12: 108VH10 / 108VL10.Mc (antibody, V domains shown)
VH: B8 VH with Q53P
VL: B8 VL with N53S
notes: 4D5-framework series; constant regions not restated for this series; also called VH10 VL10.Mc
B13: 108VH10 / 108VL10.Md (antibody, V domains shown)
VH: B8 VH with Q53P
VL: B8 VL with T56S
notes: 4D5-framework series; constant regions not restated for this series; also called VH10 VL10.Md
B14: 108VH10.Md / 108VL10.M1 (antibody, V domains shown)
VH: B8 VH with D52K, Q53P
VL: B8 VL
notes: 4D5-framework series; constant regions not restated for this series; Asp52 replaced with Lys; also called VH10.Md VL10.M1
B15: 108VH10.Mg / 108VL10.Me (antibody, V domains shown)
VH: B8 VH with Y27F, S28T, T30S, Q53A
VL: B8 VL with E27Q, N28S, V29I, G30S, T31S, I33L, S34N, N53S, T56S
notes: 4D5-framework series; constant regions not restated for this series; also called VH10.Mg VL10.Me
B16: 108VH10.Mi / 108VL10.Me (antibody, V domains shown)
VH: B8 VH with Y27F, S28T, T30S, Q53A, Q62D
VL: B8 VL with E27Q, N28S, V29I, G30S, T31S, I33L, S34N, N53S, T56S
notes: 4D5-framework series; constant regions not restated for this series; also called VH10.Mi VL10.Me
B17: 108VH10.Mh / 108VL10.Me (antibody, V domains shown)
VH: B8 VH with Y27F, S28T, T30S, Q53A, S61V
VL: B8 VL with E27Q, N28S, V29I, G30S, T31S, I33L, S34N, N53S, T56S
notes: 4D5-framework series; constant regions not restated for this series; also called VH10.Mh VL10.Me
B18: 108VH10.Ml / 108VL10.Me (antibody, V domains shown)
VH: B8 VH with Y27F, S28T, T30S, Q53A, D66G
VL: B8 VL with E27Q, N28S, V29I, G30S, T31S, I33L, S34N, N53S, T56S
notes: 4D5-framework series; constant regions not restated for this series; also called VH10.Ml VL10.Me
B19: 108VH10.Mj / 108VL10.Me (antibody, V domains shown)
VH: B8 VH with Y27F, S28T, T30S, Q53A, K63S
VL: B8 VL with E27Q, N28S, V29I, G30S, T31S, I33L, S34N, N53S, T56S
notes: 4D5-framework series; constant regions not restated for this series; also called VH10.Mj VL10.Me

The target of the first assay is T1, human CD47 on cells (SHP-77 tumor cells, human red blood cells, CCRF-CEM cells, human CD47 CHO-K1 stable cell … (human, UniProt Q08722 19-323)).
T1 construct: whole, on cells; also called RBC
The assay can be described thus: flow cytometry on human RBCs.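 Also: antibody binding measured by flow cytometry as geometric mean fluorescence intensity over a range of antibody concentrations, with EC50 and maximum taken from a sigmoidal dose-response fit.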 For orientation: A flow cytometer gives signals particle by particle.
Usually EC50 stands for the concentration giving half of the maximal effect. The low end stands for an effect from little substance, the high end for a need for much substance. Consider B1, for which the EC50 was 4 nM and the “Fitted Maximal MFI” value came out at 35500 MFI.
Turning to B2, the EC50 is 4 nM and the “Fitted Maximal MFI” value was 29200 MFI.

A further assay has as its target T1, human CD47 on cells (SHP-77 tumor …). Put plainly: flow cytometry on SHP-77 cells.
Turning to B1, a half-maximal effect (EC50) was put at 7.1 nM and the “Fitted Maximal MFI” value stood at 39600 MFI.
Turning to B2, the EC50 worked out at 9.8 nM and the “Fitted Maximal MFI” value was 38700 MFI.

The target in another assay is T2, wild type human CD47 (Acro Biosystems, cat. no. CD7-H5227) (human, UniProt Q08722 19-139).
T2 construct: Bought protein used as SPR analyte; also called Human CD47 wt; wild-type CD47
Put plainly: SPR, IgG captured, CD47 in flow; exp 1.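 Also: biacore T200 SPR using IgG from supernatants of transfected HEK293 cells, rate constants fitted to association and dissociation curves, Kd derived from koff over kon.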 A general note: Surface plasmon resonance follows binding to a sensor surface in real time, without labels.
The Kd is a measure of binding affinity in units of concentration. For orientation: koff means the rate constant with which the complex falls apart. Higher therefore signals a short-lived complex. The term kon denotes a measure of how fast the partners come together. Read a low kon as slow association. Regarding B3, the affinity, expressed as Kd, was 1.3 nM; the koff came out at 0.00096 s⁻¹; the kon amounted to 720000 M⁻¹ s⁻¹.
B4 gave a Kd of 1.9 nM, a koff of 0.0014 s⁻¹ and an on-rate (kon) of 760000 M⁻¹ s⁻¹.
B5 came in with a Kd of 3 nM, a koff of 0.0022 s⁻¹ and an on-rate (kon) of 720000 M⁻¹ s⁻¹.

For a further assay, the target named is T3, Human CD47-C33G (human, UniProt Q08722 19-135).
T3 construct: also called CD47 mutein with C33G mutation
The assay can be described thus: SPR, IgG captured, CD47 in flow; exp 1.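 Also: biacore T200 SPR using IgG from supernatants of transfected HEK293 cells, rate constants fitted to association and dissociation curves, Kd derived from koff over kon.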
In turn, B3 showed a Kd of 6.2 nM, a koff of 0.0021 s⁻¹ and a kon of 330000 M⁻¹ s⁻¹.
With B4, the dissociation constant Kd amounted to 8.5 nM, the koff was determined as 0.0028 s⁻¹ and the kon was 330000 M⁻¹ s⁻¹.
In the case of B5, the Kd was 15 nM, the koff amounted to 0.0044 s⁻¹ and the association rate constant (kon) was found to be 300000 M⁻¹ s⁻¹.

The target of the next assay is T2, wild type human CD47 (Acro Biosystems, …). Put plainly: SPR, IgG captured, CD47 in flow; exp 4.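 Also: biacore T200 SPR using IgG from transfected HEK293 supernatants against wild-type human CD47 or its C33G mutein, rates fitted to association and dissociation curves, KD estimated from them.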
In turn, B1 came in with a Kd of 6.2 nM, a dissociation rate constant (koff) of 0.0028 s⁻¹ and a kon of 450000 M⁻¹ s⁻¹.
The molecule B6 yielded a Kd of 4.6 nM, a koff of 0.0026 s⁻¹ and a kon of 570000 M⁻¹ s⁻¹.
B7 registered a Kd of 3 nM, a koff of 0.0022 s⁻¹ and a kon of 710000 M⁻¹ s⁻¹.
The molecule B2 showed a Kd of 5.7 nM, an off-rate constant (koff) of 0.003 s⁻¹ and a kon of 520000 M⁻¹ s⁻¹.

The target of the next assay is T3, Human CD47-C33G. The assay can be described thus: SPR, IgG captured, CD47 in flow; exp 4.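 Also: biacore T200 SPR using IgG from transfected HEK293 supernatants against wild-type human CD47 or its C33G mutein, rates fitted to association and dissociation curves, KD estimated from them.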
For the molecule B1, the Kd is 33 nM, the koff is 0.0063 s⁻¹ and the kon worked out at 190000 M⁻¹ s⁻¹.
Regarding B6, the Kd worked out at 23 nM, the koff was found to be 0.0054 s⁻¹ and the kon was 240000 M⁻¹ s⁻¹.
Molecule B7 displayed a Kd of 15 nM, a koff of 0.0045 s⁻¹ and a kon of 310000 M⁻¹ s⁻¹.
The molecule B2 yielded a Kd of 31 nM, a koff of 0.0067 s⁻¹ and a kon of 220000 M⁻¹ s⁻¹.

The target in the next assay is T2, wild type human CD47 (Acro Biosystems, …). The assay can be described thus: SPR, IgG captured, CD47 in flow; exp 2.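 Also: rates derived from association and dissociation curves, KD estimated from them, C33G mutein used to avoid CD47 IgV homodimers for true monovalent affinity.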
As for B8, the Kd is 53 nM, the koff was determined as 0.0027 s⁻¹ and the kon worked out at 52000 M⁻¹ s⁻¹.
Molecule B9 showed a Kd of 6.5 nM, a koff of 0.0016 s⁻¹ and a kon of 240000 M⁻¹ s⁻¹.
The molecule B10 returned a Kd of 8.7 nM, a koff of 0.002 s⁻¹ and a kon of 230000 M⁻¹ s⁻¹.
B11 gave a Kd of 1.4 nM, a koff of 0.0015 s⁻¹ and a kon of 1e+06 M⁻¹ s⁻¹.
For B12, the affinity, expressed as Kd, was 10 nM; the koff was found to be 0.002 s⁻¹; the kon turned out to be 190000 M⁻¹ s⁻¹.
B13 displayed an equilibrium dissociation constant (Kd) of 7.1 nM, a koff of 0.0016 s⁻¹ and a kon of 230000 M⁻¹ s⁻¹.

Another assay has as its target T3, Human CD47-C33G. The assay can be described thus: SPR, IgG captured, CD47 in flow; exp 2.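 Also: rates derived from association and dissociation curves, KD estimated from them, C33G mutein used to avoid CD47 IgV homodimers for true monovalent affinity.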
On to B14, for which the binding result was “no binding (tested: 2.5 nM to 1.28 µM of antigen tested)”.
As for B9, the Kd turned out to be 39 nM, the koff stood at 0.0035 s⁻¹ and the kon was 89000 M⁻¹ s⁻¹.
The corresponding values for B10 are 57 nM, 0.0046 s⁻¹ and 82000 M⁻¹ s⁻¹.
Turning to B11, the Kd was found to be 8 nM, the koff worked out at 0.0029 s⁻¹ and the kon came out at 360000 M⁻¹ s⁻¹.
B12 returned a Kd of 64 nM, an off-rate (koff) of 0.0044 s⁻¹ and an on-rate (kon) of 69000 M⁻¹ s⁻¹.
B13 yielded a Kd of 42 nM, a koff of 0.0036 s⁻¹ and a kon of 86000 M⁻¹ s⁻¹.

The next assay addresses T2, wild type human CD47 (Acro Biosystems, …). The assay can be described thus: SPR, IgG captured, CD47 in flow; exp 3.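 Also: other target is a CD47 mutein carrying C33G, used to obtain true monovalent affinity, with kon and koff fitted from SPR binding curves and KD derived from both rates.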
The molecule B15 gave a Kd of 4.8 nM, a koff of 0.0032 s⁻¹ and a kon of 680000 M⁻¹ s⁻¹.
B16 yielded a Kd of 5.2 nM, a koff of 0.0034 s⁻¹ and an on-rate constant (kon) of 640000 M⁻¹ s⁻¹.
In turn, B17 showed a Kd of 17 nM, an off-rate constant (koff) of 0.0066 s⁻¹ and a kon of 380000 M⁻¹ s⁻¹.
In turn, B18 had a Kd of 5.6 nM, an off-rate (koff) of 0.0034 s⁻¹ and a kon of 610000 M⁻¹ s⁻¹.
B19 gave a Kd of 5.8 nM, a koff of 0.0035 s⁻¹ and a kon of 610000 M⁻¹ s⁻¹.

A further assay deals with T3, Human CD47-C33G. Put plainly: SPR, IgG captured, CD47 in flow; exp 3.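 Also: other target is a CD47 mutein carrying C33G, used to obtain true monovalent affinity, with kon and koff fitted from SPR binding curves and KD derived from both rates.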
Molecule B15 returned a Kd of 31 nM, a koff of 0.0072 s⁻¹ and a kon of 230000 M⁻¹ s⁻¹.
In turn, B16 returned a Kd of 38 nM, an off-rate (koff) of 0.0087 s⁻¹ and an on-rate constant (kon) of 230000 M⁻¹ s⁻¹.
Take B17: the Kd was found to be 160 nM, the koff stood at 0.013 s⁻¹ and the kon is 79000 M⁻¹ s⁻¹.
The corresponding values for B18 are 36 nM, 0.0073 s⁻¹ and 200000 M⁻¹ s⁻¹.
In turn, B19 gave a Kd of 38 nM, a koff of 0.0078 s⁻¹ and a kon of 210000 M⁻¹ s⁻¹.
